Like-named read-outs stand apart in the source and are kept apart here.
Columns and labels:
Test in all cases: cell-based or functional assay
[1] = target: T1, human IL-22 receptor (human IL-22Ra and human IL-10Rb) on cells (human, UniProt Q8N6P7 16-574; Q08334 20-325)
T1 sequence (looked up) 1: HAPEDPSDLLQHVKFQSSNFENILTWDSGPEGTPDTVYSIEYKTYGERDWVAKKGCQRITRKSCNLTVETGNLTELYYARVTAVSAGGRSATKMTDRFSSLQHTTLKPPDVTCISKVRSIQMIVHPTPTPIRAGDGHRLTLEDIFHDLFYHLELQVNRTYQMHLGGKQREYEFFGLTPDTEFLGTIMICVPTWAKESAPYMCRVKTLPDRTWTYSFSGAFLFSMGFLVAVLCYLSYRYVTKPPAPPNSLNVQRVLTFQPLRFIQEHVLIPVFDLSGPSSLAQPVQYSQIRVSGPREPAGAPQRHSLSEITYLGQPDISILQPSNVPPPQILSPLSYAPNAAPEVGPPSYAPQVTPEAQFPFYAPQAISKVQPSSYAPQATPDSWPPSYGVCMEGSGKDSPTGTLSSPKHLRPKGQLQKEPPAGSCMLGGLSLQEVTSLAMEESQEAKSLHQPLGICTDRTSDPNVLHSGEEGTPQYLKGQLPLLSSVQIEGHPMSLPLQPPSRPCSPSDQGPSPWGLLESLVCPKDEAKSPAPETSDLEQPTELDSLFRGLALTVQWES
T1 sequence (looked up) 2: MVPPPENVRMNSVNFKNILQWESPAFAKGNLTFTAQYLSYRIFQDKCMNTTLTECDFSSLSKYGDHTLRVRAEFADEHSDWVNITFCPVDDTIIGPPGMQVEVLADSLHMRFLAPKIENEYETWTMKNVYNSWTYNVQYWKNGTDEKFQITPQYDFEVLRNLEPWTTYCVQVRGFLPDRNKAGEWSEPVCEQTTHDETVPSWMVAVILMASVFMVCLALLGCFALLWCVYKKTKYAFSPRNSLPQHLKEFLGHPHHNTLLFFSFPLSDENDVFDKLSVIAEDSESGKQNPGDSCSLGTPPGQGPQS

[2] = target: T1, human IL-22 receptor (human IL-22Ra and …); remark: listed apart in the source
[3] = target: T1, human IL-22 receptor (human IL-22Ra and …); remark: listed apart in the source
[4] = target: T1, human IL-22 receptor (human IL-22Ra and …); remark: listed apart in the source
[5] = target: T1, human IL-22 receptor (human IL-22Ra and …); remark: listed apart in the source
[6] = target: T1, human IL-22 receptor (human IL-22Ra and …); remark: listed apart in the source

B1: native mature human IL-22 (hIL-22) (ligand)
chain: APISSHCRLDKSNFQQPYITNRTFMLAKEASLADNNTDVRLIGEKLFHGVSMSERCYLMKQVLNFTLEEVLFPQSDRFQPYMQEVVPFLARLSNRLSTCHIEGDDLHIQRNVQKLKDTVKKLGESGEIKAIGELDLLFMSLRNACI
- EC50, BHK cell reporter gene assay (STAT3-induced luciferase) [1]: 0.07 nM
- EC50, BHK cell reporter gene assay (STAT3-induced luciferase) [2]: 0.07 nM
- EC50, BHK cell reporter gene assay (STAT3-induced luciferase), second laboratory [3]: 0.03 nM
- EC50, BHK cell reporter gene assay (STAT3-induced luciferase), second laboratory [4]: 0.027 nM
- EC50, HepG2 cell assay for pSTAT3 (AlphaScreen SureFire STAT3 p-Tyr705) [5]: 3.88 nM
- EC50, BHK cell reporter gene assay (STAT3-induced luciferase) [6]: 0.07 nM

— US20240239855A1 (CYTOKI PHARMA, published 2024)
